Results published in publication PMC5415356.

Target: PATJ (UniProt Q8NI35)
Assay: reciprocal co-IP (Flag or HA), immunoblot
Conditions: reference: wild type HA-Amot-p130; sites S176

## Amot-p130 (Angiomotin) (from UniProt Q8VHG2) S176A
  binding against the reference: lost
